In the experiment the target is T1, LOXL2-Flag (human, UniProt Q9Y4K0 26-774).
T1 construct: Lysyl oxidase-like 2 (LOXL2), human, full-length form (774 aa by the printed limits of its C-terminal domain); also called Flag-tagged LOXL2; source: HEK293T, transfected, immunopurified
T1 sequence (looked up): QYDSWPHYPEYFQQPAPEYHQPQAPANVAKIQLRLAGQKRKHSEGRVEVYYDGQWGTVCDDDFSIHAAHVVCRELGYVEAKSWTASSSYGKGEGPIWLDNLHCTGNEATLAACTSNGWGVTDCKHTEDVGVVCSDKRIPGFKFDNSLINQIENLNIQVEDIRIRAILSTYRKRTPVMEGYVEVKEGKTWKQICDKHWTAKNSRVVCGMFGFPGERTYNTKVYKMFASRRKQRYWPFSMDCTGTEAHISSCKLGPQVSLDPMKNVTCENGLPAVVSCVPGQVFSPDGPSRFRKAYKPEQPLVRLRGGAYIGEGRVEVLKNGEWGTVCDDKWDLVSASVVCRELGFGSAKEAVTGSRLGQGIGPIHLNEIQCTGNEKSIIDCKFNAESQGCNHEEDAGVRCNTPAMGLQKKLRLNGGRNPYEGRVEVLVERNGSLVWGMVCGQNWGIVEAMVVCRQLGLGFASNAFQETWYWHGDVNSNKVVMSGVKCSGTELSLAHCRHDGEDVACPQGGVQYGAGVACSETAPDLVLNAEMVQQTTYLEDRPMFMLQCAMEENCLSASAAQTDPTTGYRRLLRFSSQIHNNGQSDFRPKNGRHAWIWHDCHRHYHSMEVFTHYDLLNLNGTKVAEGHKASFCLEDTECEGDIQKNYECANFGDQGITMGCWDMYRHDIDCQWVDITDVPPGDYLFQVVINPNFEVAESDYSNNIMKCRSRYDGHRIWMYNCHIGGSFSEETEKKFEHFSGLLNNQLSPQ
Nature of the experiment: pull-down; Purified GST-aldolase A or GST from bacteria on glutathione resins, incubated with immunopurified LOXL2-Flag or L2Δ13-Flag from HEK293T at 4 °C for 2 h; immunoblot with anti-Flag. Conditions: both partners purified.

B1: GST-aldolase A (enzyme, human)
chain: PYQYPALTPEQKKELSDIAHRIVAPGKGILAADESTGSIAKRLQSIGTENTEENRRFYRQLLLTADDRVNPCIGGVILFHETLYQKADDGRPFPQVIKSKGGVVGIKVDKGVVPLAGTNGETTTQGLDGLSERCAQYKKDGADFAKWRCVLKIGEHTPSALAIMENANVLARYASICQQNGIVPIVEPEILPDGDHDLKRCQYVTEKVLAAVYKALSDHHIYLEGTLLKPNMVTPGHACTQKFSHEEIAMATVTALRRTVPPAVTGITFLSGGQSEEEASINLNAINKCPLLKPWALTFSYGRALQASALKAWGGKKENLKAAQEEYVKRALANSLACQGKYTPSGQAGAAASESLFVSNHAY
notes: Aldolase A (fructose-bisphosphate aldolase A), human; also called GST-tagged aldolase A; GST-Aldolase A fusion protein; source: bacteria, purified recombinant, retained on glutathione resins
Consider B1, for which the binding result is on record as “binds”.

(Values after paper PMC9547286, “LOXL2-dependent deacetylation of aldolase A induces metabolic reprogramming and tumor progression^☆” (Redox Biology, 2022).)
